Results on 23 sequences are retold here after the supplement of paper PMC9170038.

The series concerns MS2 coat protein. In words: apparent KD of MS2 coat protein; designed switch direction (-1 OFF switch, 1 ON switch): -1; higher = weaker reporter binding. Put shortly: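 On Illumina chips, designed RNA switches with common flanks were made by stalled E. coli RNA polymerase. Titrations with SNAP-549-labelled MS2 coat protein, doubling from 0.7 or 1.5 nM to 3 µM, were done with no input, with 200 uM small-molecule ligand, or with an oligonucleotide input. Apparent KD is the median per design over clusters, from curve fits of normalised cluster fluorescence.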

Setting [1] is: input ligand: microRNA oligo, concentration not stated.
Setting [2] is: Eterna round: R95, input ligand: microRNA oligo, concentration not stated.
[3] abbreviates: Eterna round: R95, input ligand: FMN 200 uM.
Where [4] appears, read: Eterna round: R95, input ligand: none.

On to “AGAUCUAGGACAGGAUAUAUAGAUGGCUUCAUCGAAGAUGAAGCCAUCACAUGAGGAUCACCCAUGUAGAAGGGUCCUAGAUCA [Omei Exc(NG) 2Av6] (Eterna round: R96, puzzle: Exclusion NG 2)”, for which the “apparent KD of MS2 coat protein” value was 10.9 nM (input ligand: FMN 200 uM), 8.74 nM under setting [1] and 10.3 nM (input ligand: none).

As to “CUUUUGUGAGGAUAUUAGUAGUAAAAAAAUAAAAUUACUACUGAGAAGGCACAUGAGGAUCACCCAUGUUCCUC [salish99_ex4_r3_036] (puzzle: Exclusion 4)”, under setting [2], the “apparent KD of MS2 coat protein” value came out at 33.2 nM.

On to “UAUAUAUAGUAAGGAUAUGUAUUAAUUUUAUAAACAGAAGGUACUGACAUGAGGAUCACCCAUGUUUUAGUGUGGGCAUGUAGA [JMF's solution 9] (Eterna round: R96, puzzle: Exclusion NG 1)”, for which, under setting [1], the “apparent KD of MS2 coat protein” value is 72.8 nM.

With “AGUACUAACACGAAAGUGUUAGUACAAUAAGCUUGUAUUACAUGAGGAUCACCCAUGUCCUCAUAAGCUCGUCUUAU [Mat - Sensor v3 - Turn-off var 2 - D46] (puzzle: Sensor v3, turn-off variant 2)”, the “apparent KD of MS2 coat protein” value runs as follows: under setting [3], 316 nM; under setting [2], 14 nM; under setting [4], 881 nM.

Regarding “UGUGUCUCAGGAGGAUAUCUCUCGGUUGCCGUUAGAGAAGGCUUGAAACAUGAGGAUCACCCAUGUAAAUGGCCCGUCCUCCAA [Lalecetege] (Eterna round: R96, puzzle: Exclusion NG 1)”, the “apparent KD of MS2 coat protein” value was found to be 12.2 nM (input ligand: FMN 200 uM), 11.3 nM under setting [1] and 14.1 nM (input ligand: none).

For “CUGGUCCGAGGAUAUAUUAAGUGAAACAUGAGGAUCACCCAUGUUAUUUGAUGGAAGAAAAUAGAAGGCGGACUAG [Mat - Exclusion 5 - JL mod - D59] (puzzle: Exclusion 5)”, the “apparent KD of MS2 coat protein” value runs as follows: under setting [3], 29.9 nM; under setting [2], 86.9 nM; under setting [4], 62.5 nM.

Regarding “CAGUACUGAGGAUAUACAUGAGGAUCACCCAUGUGUCCCGGCUAGGAAACUAGCAAAAGUAGAAGGCAGUACUG [Fiskers Ex 3 828 mod 2] (Eterna round: R96, puzzle: Exclusion 3)”, the “apparent KD of MS2 coat protein” value by setting is: (input ligand: FMN 200 uM) 494 nM; under setting [1], 21.6 nM; (input ligand: none) 24.1 nM.

Consider “ACCUCACAUGAGGAUCACCCAUGUCAGGAUAUCUAAUAUUGCAGCGUUCCCGACGCUGAGAGAAGGGACAUUAA [EX1 #30] (Eterna round: R97, puzzle: Exclusion 1)”, for which the “apparent KD of MS2 coat protein” value (input ligand: FMN 200 uM) came to 29.6 nM and the “apparent KD of MS2 coat protein” value (input ligand: none) was 17.7 nM.

In the case of “AGAGUGGUGCGAGGAUAUACAUGAGGAUCACCCAUGUAAACGUGUGAGGCAAAGCCUCACACGAUGUAGAAGGCGCACUACUCA [Mat - Exclusion NG 2 - Mod of JL - D15] (Eterna round: R96, puzzle: Exclusion NG 2)”, the “apparent KD of MS2 coat protein” value (input ligand: FMN 200 uM) was 17.3 nM, the “apparent KD of MS2 coat protein” value under setting [1] was 9.9 nM and the “apparent KD of MS2 coat protein” value (input ligand: none) turned out to be 15.8 nM.

In the case of “GUCAUCAAACAUGGGAUAAACAUGAGGAUCACCCAUGUUUACAAGUUUUUUGCUCGUCUUAUAAUAAGUUUGAUGAC [Antenna 8 - Jieux - Sensor, turn-off variant 1] (Eterna round: R97, puzzle: Sensor, turn-off variant 1)”, the “apparent KD of MS2 coat protein” value is, setting by setting: (input ligand: FMN 200 uM) 14 nM; (input ligand: none) 15 nM.

Consider “UAUGUUAGCACAGGAUAUUGUUAUUAUUUAAUUCAAGAAGGGUGUACAUGAGGAUCACCCAUGUUAUGGUUUUAUCUUUUACAA [JR_ExcNG1_Sub013] (Eterna round: R96, puzzle: Exclusion NG 1)”, for which the “apparent KD of MS2 coat protein” value under setting [1] is 957 nM.

In the case of “UUAUUGUGAGGAUAUAUAUGCAGUAAUCCUUUAAAUUUAUAACUUGAGGAUCACCCAAGUAGAAGGCGCGAUAU [JR_Ex2_Sub055] (Eterna round: R97, puzzle: Exclusion 2)”, the “apparent KD of MS2 coat protein” value was determined as 33 nM (input ligand: FMN 200 uM) and 24.9 nM (input ligand: none).

Take “CACCUACAUGAGGAUCACCCAUGUCAGGAUAUCUUUGCUAAUAUGAAUAGAUGCGUAAAGAGAAGGGACAUUUC [EX1 C.8] (Eterna round: R97, puzzle: Exclusion 1)”: the “apparent KD of MS2 coat protein” value reads like this: (input ligand: FMN 200 uM) 27 nM; (input ligand: none) 14.9 nM.

For “UUCCUGUCAGGAUAUGACUAGAGGCACGAAAGUGUGUUUAGUUAGAAGGGACAUGAGGAUCACCCAUGUAGUCC [Bring Us a Shrubbery-20] (puzzle: Exclusion 4)”, the “apparent KD of MS2 coat protein” value under setting [2] worked out at 21.9 nM.

With “GGAAGAGAGAUAGGAUAUCAGAGGAAGAUGGUGAGAGAGACAUGAGGAUCACCCAUGUGAAGGAAUGAGAAGGGUCAGAAGGAA [EXNG2 V2 h] (Eterna round: R96, puzzle: Exclusion NG 2)”, the “apparent KD of MS2 coat protein” value by setting is: (input ligand: FMN 200 uM) 130 nM; under setting [1], 133 nM; (input ligand: none) 101 nM.

As for “CCAAGCUUGUUCAUUAACCACAUGAGGAUCACCCAUGUCUUGGCAAUUAUGACUUGCCCGUCAGGUGCUCGUCUUAU [Sensor-V1 #35] (Eterna round: R97, puzzle: Sensor, turn-off variant 1)”, the “apparent KD of MS2 coat protein” value by setting is: (input ligand: FMN 200 uM) 65.5 nM; (input ligand: none) 71.3 nM.

“GGGCCACAUGAGGAUCACCCAUGUUAGGAUAUUUGUUCGGUGCUAUGAAUUCAAGGCUAGAGAAGGAACAGGGA [Eternabot (L1) Solution 46] (Eterna round: R97, puzzle: Exclusion 1)”: the “apparent KD of MS2 coat protein” value worked out at 22.4 nM (input ligand: FMN 200 uM) and 23 nM (input ligand: none).

For the sequence “UAAUUGUGAGGAUAUUCGUUUAACACGGAGACGUGUUGAACGGAGAAGGCACAUGAGGAUCACCCAUGUUCCUU [Mat - Exclusion 4 - JL Mod - D17] (Eterna round: R97, puzzle: Exclusion 4)”, the “apparent KD of MS2 coat protein” value by setting is: (input ligand: FMN 200 uM) 89.9 nM; (input ligand: none) 19.3 nM.

“CGUACUGAAGUAAGGAUAUUGUCUCGGAUACGAAACAAGAAGGUACAUGAGGAUCACCCAUGUUGACAGUACGA [Malc #30 mod 8] (puzzle: Brourd's mod of Exclusion 4)”: the “apparent KD of MS2 coat protein” value under setting [2] was found to be 14 nM.

On to “CCAGCGUGUGUGAGGAUAUGCUGGUCCUUGGAUCAGCAGAAGGCACAUGAGGAUCACCCAUGUGAGAACGUUGG [JL bmx4 3.33] (puzzle: Brourd's mod of Exclusion 4)”, for which, under setting [2], the “apparent KD of MS2 coat protein” value is 17.6 nM.

As for “AUUAUAUAGUCAGGAUAUAGAAUAUUAUUUUAACAUGAGGAUCACCCAUGUAACCUUAUGUGUAGCUAGAAGGGACAUUUAUUA [Title] (Eterna round: R96, puzzle: Exclusion NG 2)”, under setting [1], the “apparent KD of MS2 coat protein” value is 76.6 nM.

“GAUUCGCGAGGAUAUACAGUCGAGUCCAUUACGUGUCUGGGACUUGAGGAUCACCCAAGUAGAAGGCGUCUCAU [salish99_ex2_r4_638] (Eterna round: R97, puzzle: Exclusion 2)”: the “apparent KD of MS2 coat protein” value is, setting by setting: (input ligand: FMN 200 uM) 55.6 nM; (input ligand: none) 57.8 nM.

For the sequence “AUUGUAUGAGGAUAUACACCAGUGGGAGUGUCUUGCGUGAUACAUGAGGAUCACCCAUGUAGAAGGCGUACUAC [Eternabot (L2) Solution 90] (Eterna round: R97, puzzle: Exclusion 2)”, the “apparent KD of MS2 coat protein” value by setting is: (input ligand: FMN 200 uM) 36.9 nM; (input ligand: none) 16 nM.
